Here are results for 41 sequences from the nanobody polyreactivity screen of Harvey et al. (2022).

The data set can be described thus: yeast display, Sf9 membrane polyspecificity reagent, FACS + sequencing; frameworks hold sequencing errors. An outline of the steps:
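A synthetic nanobody library was expressed on Saccharomyces cerevisiae BJ5465 by galactose induction for 36–48 hours. The library was stained for 1 hour at 4 °C with 10% biotinylated, detergent-solubilized Sf9 membrane reagent and enriched with streptavidin microbeads before FACS. Low and high (top ~1%) gates were set on anti-HA fluorescence for expression and streptavidin fluorescence for reagent binding, and each polyreactivity label reflects the gate of origin.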
As to “QVQLVESGGGLVQAGGSLRLRCAASGFTIWPYAMGWYRQAPGKERELVAGITRKGGSTYYADSVKGRFTISRDNAKNTVYLQMNSLKPEDTAVYYCNTKYAVEIDYWGQGTQVTVSS”, the “polyreactivity (PSR sort gate)” value is “low polyreactivity”. For the sequence “QVQLVESGGGLVQAGGSLRLSCAASGRIFKVYAMGWYRQAPGKERELVASIRWNTGSTYYADSVKGRFTISRDNAKNSVYLQMNSLKPEDTAVYYCAATDWWGYYYWGQGTQVTVSS”, the “polyreactivity (PSR sort gate)” value is “high polyreactivity”.

On to “QVQLVDSGGGLVQAGGSLRLSCAASGRTFNWYAMGWYRQETRKERELVAAISSTGGSTYYADSVKGRFTISRDNAKNTVYLQMNSLKPEDTAVYYCAAALPGYGDYYYWGQGTQVTVSS”, for which the “polyreactivity (PSR sort gate)” value is reported as “high polyreactivity”. “QVQLVESGGGLVQAGGSLRLSCAASGSTYGYAMGWYRQAPGKEMKLVARITWRGGSTSYADSVKGRFTITRDNAKNTVYLQMNSLKPEDTAVYYCADGFYFQVYTYVRKRYYYWGQGTQVTVSS”: the “polyreactivity (PSR sort gate)” value is reported as “high polyreactivity”. With “QVQLVESGGGLVQAGGSLRLSCAASGSTFARYAMGWYRQAHGKERELVAAISRRGGSTYYADSVKGRFTISRDNAKNTVYVQMNSLKPEDTAVHYCAARYGIISSFEYDYWGQGTQVTVSS”, the “polyreactivity (PSR sort gate)” value is given as “high polyreactivity”.

As for “QVQLVESGGGLVQAGGSLRLSCAASGSIFYRYAMGWYRPAPGKERELVAAISSTGSTYYADSVKGRFTISRDNAKNTVYLQMNSLKPEDTAVYYCAARQGYRSYRRYDYWGQGTQVTVSS”, the “polyreactivity (PSR sort gate)” value is given as “high polyreactivity”. With “QVQLVESGGGLVQAGGILRLSCAASGSTFGYNAMGWYRQAPGKERELVAAIRFSGGSTFYADSVKGRFTISRDNAKNTVYLQMNSLKPEDTAVYNCAAGSAYYSQRYFAYGYDSWGQGTQVTVSS”, the “polyreactivity (PSR sort gate)” value is recorded as “low polyreactivity”. On to “QVQLVESGGGLVQAGGSLRLSCAASGFTFAVYAMGWYRQAPGKERELVAAITTSGTRTYYADSVKGRFTISRDNAKNTVYLQMNSLKPEDTAVYYCAAVGFRQWPEFDYWGQGTQVTVSS”, for which the “polyreactivity (PSR sort gate)” value is reported as “low polyreactivity”. Regarding “QVQLVESGGGLVQAGGSLRLSCAASGITFWLYAMGWYRQAPGKERELVAAITSGGSTTYADSVKGRFTISRDNAKNTVFLQMYSLKPEDSAVYYCNAEYQDWFGRLDYWGQGTQVTVSS”, the “polyreactivity (PSR sort gate)” value is reported as “high polyreactivity”. Consider “QVQLVESGGGLVQAGGSLRLSCAASGFIFYRYAMGCYRQAPGTEREFVAAISFRDGITYADSVKGRFTISRDNAKNTVYLQMNTLKPEDTAVYYCNAALSQLRRGGLAMDYWGQGTQVTVSS”, for which the “polyreactivity (PSR sort gate)” value is “low polyreactivity”. As to “QVQLVESGGGLVQAGGSLRISCAASGSIFRSNAMGWYRQAPGKEREMVAAISSSGGSTYYADSVKGRFTISRDNAKNTVYFQMNSLKPEDTAVYYCAAEVLSSDLFRPDSIVDYWGQGTQVNVSS”, the “polyreactivity (PSR sort gate)” value is “low polyreactivity”. As to “QVQLVESGGGLVQAGGSLRLSCAASGRTFWYYAMGWYRQAPGKERELVAYADSVKGRFTISRDKAKNTVYLQMNSLKPEDTAVYYCAVGPVVWFSSSLYYTEYYYWGQGTQVTVSS”, the “polyreactivity (PSR sort gate)” value is listed as “low polyreactivity”. For “QVQLVESGGGLVQAGGSLRLSCAASGSTFYTYDMGWYRQAPGKERELVAAISRRDGITYYADSVKGRFTISRDYATNTVYLQMNSLNPEDSAVYYCAAEDAYRYYDFDYWGQGTQVTVSS”, the “polyreactivity (PSR sort gate)” value was “low polyreactivity”. With “QVQLVESGGGLVQAGGSLRLSCAASGFTFSVNAMGRYRQAPGKERELVAAISSRGSITYYADSVKGRFTISRDNAKNTVYLQMNSLKPEDPAVYYCNAYKYKSPGDYWGQGTQVTVSS” the entry was “high polyreactivity”. “QVQLVESGGGLVQAGGSLRLSCAASGRIFSDYAMGWYRQAPGKERELVAAISRSGTRTYYADSVKGRFTISRDNAKNTVYLQMNSLKPEDTAVYYCAAKTPYGRAGQEEDYWGQGTQVTVSS”: the “polyreactivity (PSR sort gate)” value was “high polyreactivity”. Consider “QVQLVESGGGLVQAGGSLRLSCAASGRIFYRYAMGWYRQAPGKERELVAAISSGSSTNYADSVKGRFTISRDNAKNTVYLQMNSLKPEDTAVYYCNAERYGKSWRYCYWGQGTQVTVSS”, for which the “polyreactivity (PSR sort gate)” value is given as “high polyreactivity”. In the case of “QVQLVESGGGLVQAGGSLRLSCAASGSTVKYAMGWYRQAPGKERELVAAISSRGGSTSYADSVNGRFTISRDNAKNTVYLQMNSLKPEDTAVYSCARRIRQQRFGGNYWGQGTQVTVSS”, the “polyreactivity (PSR sort gate)” value was “high polyreactivity”. On to “QVQLVESGGGLVQAGGSLRLSCAASGFTFSVYAMGWYRQAPGKERELVAAISDSGGRTYYADSVKGRFTISRDNEKNTVYLQMNSLKPEDSAVYYWKARPAGRGYNYWGQGTQVTVSS”, for which the “polyreactivity (PSR sort gate)” value is recorded as “high polyreactivity”. For the sequence “QDQLVESGGGLVQAGGSLRLSCAASGRIFGPYTMGWYRQAPGKEREFVAAISRSGDSTYYADSVKGRFTISRDNAKNTVYLQMNSLKPEDSAVYYCAAKYGTRLSAYYYWGQGTLVTVSS”, the “polyreactivity (PSR sort gate)” value is recorded as “high polyreactivity”. With “QVQLVESGGGLVQAGGSLLLSCAASGSTFDDKAMGWYRQAPGKERELVAAISSDGSTNYADSVKGRFTISRDTAKNTVYLQMNCLKPADTAVYYCAAESPWDWGSWFEALYDYWGLGTQVTVSS” the entry was “high polyreactivity”; with “QVQLVESGGGLVQAGGSLRLSCAASGRTFWYYDMGWYRQAPGKERELVATINNVGSTHYADSVKGRFTISRDNAKNNVYLQMNSLKPEDTSVYYCARASYGKMDYWGQGTQVTVSS”, “high polyreactivity”; with “QVQLVESGGGLVQAGGSLRLSCAASGRIYPYAMGWYRQAPGKERELVAAITSRGGTTYYADSVKGRFTISRDNAKNTVYLQMNSLKPEDSAVYYCAADQHIRVSWYLQMYYWGQGTQVTVSS”, “low polyreactivity”. As for “QVQLVESGGGLVQAGGSLRLSCAASGITFLKNAMGWYRQAPGKERELVAAISSSGGSTYYADSVKGRFTISRDNAKNTVYLQMNSLKPEDTAVYYCAALSVGKRYRYEYWGQGTQVTVSS”, the “polyreactivity (PSR sort gate)” value was “high polyreactivity”. Turning to “QVQLVESGGGLVQAGGCLRLSCAASGNTFYGYAMGWYRQAPGKERELVASITLSGDSTYYADSVKGRFTISRDNAMNTVYLQMNSLKPEYTAVYYCAGVYTYPLGYYHYTYDYWGQGTQVTVSS”, the “polyreactivity (PSR sort gate)” value is on record as “low polyreactivity”. As for “QVQLQESGGGLMQAGGNLRLSCAASGYISTHYYMHWYRQAPGKERELVARIDDGAITNYADSVKGRFTISRDNAKNTVYLLMNSLKPEDTAVYYCAVYSGDDYYHDFWGQGTKVTVSS”, the “polyreactivity (PSR sort gate)” value is recorded as “low polyreactivity”. With “QVQLVESGGGLVQAGGSLRLSCAASGSTFSYNDMGWYRQAPGKERELVAAITDSDGNTDYADSVKGRFTISRDKAKNTVYLQMNSLKPEDTAVYYCAAYYYGSVAQDREYWGQGTQVTVSS” the entry was “high polyreactivity”; with “QVQLVESGGGLVQAGGSLRLSCAASGFTFSRYTMGWYRQAPGKERELVAAITSSGGSTYYADSVKGRFTISRDNAKNTVYLQMNSLKPEDTAVYYCAARRRESDQRGYCGQGTQVTVSS”, “high polyreactivity”. Take “QVQLVESGGGLVQAGGSLRLSCAASGSTFAYNAMGWYRQAPGKERELVAAIDINDGNTYYADSVKGRFTISRDNAKNTVYLQMNSLNPEDTAVYYCAAEGPYYLGLDGVKDDYWGQGTQVTVSS”: the “polyreactivity (PSR sort gate)” value is “low polyreactivity”. The entry for “QVQLVESGGGLVQAGGSLRLSCAASGSIFHFYAMGWYRQAPGKERELVAAITSGTSTYYADSVKGRFTISRDNAKNTVFLQMNSLKPEDTAVYYCAAEASHYYYNAYPSYGGSDYWGQGTQVTVSS” is “low polyreactivity”; for “QVQLVESGGCLVQAGGSLRLSCAASGRTFDINDMGWYRQAPGKEREFVAAIDRSGGNTYYADSVKGRFIISRDNAKNTVYLQMNSLKPEDTAVYYCAADSPYVVAWPYVWYFTFDYWGQGTQVTVTS” it is “low polyreactivity”; for “QVQLVESGGGLVQAGGSLRLSCAASGNTFLVNVMGWYRQAPGKERELVASITINDGSTYYADSVKGRFTISRDNAKNTVYLQMNSLKPDDTAVYYCAADGVVPGRFFWPAHEYDYWGQGTQVTVSS” it is “low polyreactivity”. As to “QVQLVESGGGLVQAGGSLRLSCAASGRIWVNALGWYRQAPGKEREFVAAISTSSASTYYADSVKGRFTISRDNAKNTVYLQMNSLKPEDTAVYYCASRYLGKKYYWFKTMDYWGQGTQVTVSS”, the “polyreactivity (PSR sort gate)” value was “high polyreactivity”. For “QVQLVESGGGLVQAGGSLRLSCAASGSTFGYYAMGWYRQAPGKERELVATITIGGSTHYADSVKGRFTISRDNAKNTVYLQMNSLKPEDTAVYYCAARYAYYTARYTQVKGLDYWGQGTQVTVSS”, the “polyreactivity (PSR sort gate)” value is reported as “high polyreactivity”. As to “QVQLVESGGGLVQAGGSLRLSCAASGFIFNRYAMGWYRQAPGKERELVAAISYRGGGTYYADSVKGRFTISRDNAKNTVYLQMNSLKPEDTAVYYCAADSSYYYPMDYWGQGTQVTVSS”, the “polyreactivity (PSR sort gate)” value is “high polyreactivity”.

For the sequence “QVQLVESGGGLVQAGGSLRLSCAASGYIVRNAMGWYRQAPGKERQLVAAISRRGGSTYYADSVKGRFTISRDNAKNTVYLQLNSLKPEDTAVYYCAKDKVIPSFDADYYDWGQGTQVTVSS”, the “polyreactivity (PSR sort gate)” value is “high polyreactivity”. As for “QVQLVESGGGLVQAGGSLRLSCAASGFTFSGYAMGWYRQAPGKERELVASISRRGGSTYYADSVKGRFTISRDNAKNTVYLQMNSLKPEDTAVYYCATLRGRLRFGYDYWGQGTQVTVSS”, the “polyreactivity (PSR sort gate)” value is given as “high polyreactivity”. As to “QVQLVESGGGLVQAGGSLRLSCAASGRTFGVYAMGWSRQAPGKERELVAGIRWRGGSTYYADSVKGRFTISRDNEKKTVYFQMNSLKPEETAVYYCAADVYLVKYDYWGQGTQVTVSS”, the “polyreactivity (PSR sort gate)” value is on record as “low polyreactivity”. “QVQLVESGGGLVQAGGSLRLSCAASGFNFSYNAMGWYRQAPGKERELTYADSVKGRFTISRDNAKNTVYLQMNSLKLEDTAVYYCAAGEYGRQYDGDYWGQGTQVTVSS”: the “polyreactivity (PSR sort gate)” value is on record as “low polyreactivity”. “QVQLVESGGGLVQAGGSLRLSCAASGRIFRFYAMGWYRQAPGKERELVAAISWRGGRTYYADSVKGRFTISRDNAKNTVYLQMNSLKPEDTAVYYCNADKYETSGWKYDSWGQGTQVTVSS”: the “polyreactivity (PSR sort gate)” value is listed as “low polyreactivity”. With “QVQLVESGGGIVQAGGSLRLSSAATGRIYAKNAMGWYRQAPGKERELVAAINHSVGSTYYADSVKARFTISRDNANNTVYLQMISLIQEDTAVYYCATLQGDSSSQYDYWGQGTQVTVSS” the entry was “high polyreactivity”; with “QVQLVESGGCLVQAGGSLRLSCAASGRIFYGNTMGCYRQAPGKESELVATITRSGGSTYYADSVKGRFTISRDNAKNTVYLQMNNLKPEDTAVYYCAVGYWRLFPYGYWGQGTQVTVSS”, “high polyreactivity”.
